From patent US20140356383A1 (published 2014)

Experiments:
[1] = target: T1, human guanylyl cyclase C (GCC) (human, UniProt P25092 24-1073); assay: cell-based or functional assay
[2] = target: T1, human guanylyl cyclase C (GCC); assay: flow cytometry, 293 GCC #2 cells, 1 µg/ml
[3] = target: T1, human guanylyl cyclase C (GCC); assay: flow cytometry, 293 GCC #2 cells, 0.25 µg/ml
[4] = target: T1, human guanylyl cyclase C (GCC); assay: flow cytometry, 293 GCC #2 cells, 0.001 µg/ml
[5] = target: T1, human guanylyl cyclase C (GCC); assay: flow cytometry, 293 GCC #2 cells, 0.004 µg/ml
[6] = target: T1, human guanylyl cyclase C (GCC); assay: flow cytometry, 293 GCC #2 cells, 0.016 µg/ml
[7] = target: T1, human guanylyl cyclase C (GCC); assay: flow cytometry, 293 GCC #2 cells, 0.063 µg/ml
[8] = target: T2, TOK107-hIg (hGCC-ECD/hIgG1 Fc) (human); assay: ELISA against TOK107-hIg; antibody concentration for half maximal binding
T2 construct: Expressed in HEK293 cells; also called TOK107-hIgG; TOK107-Ig
T2 sequence (chain, as listed by the source limits assumed): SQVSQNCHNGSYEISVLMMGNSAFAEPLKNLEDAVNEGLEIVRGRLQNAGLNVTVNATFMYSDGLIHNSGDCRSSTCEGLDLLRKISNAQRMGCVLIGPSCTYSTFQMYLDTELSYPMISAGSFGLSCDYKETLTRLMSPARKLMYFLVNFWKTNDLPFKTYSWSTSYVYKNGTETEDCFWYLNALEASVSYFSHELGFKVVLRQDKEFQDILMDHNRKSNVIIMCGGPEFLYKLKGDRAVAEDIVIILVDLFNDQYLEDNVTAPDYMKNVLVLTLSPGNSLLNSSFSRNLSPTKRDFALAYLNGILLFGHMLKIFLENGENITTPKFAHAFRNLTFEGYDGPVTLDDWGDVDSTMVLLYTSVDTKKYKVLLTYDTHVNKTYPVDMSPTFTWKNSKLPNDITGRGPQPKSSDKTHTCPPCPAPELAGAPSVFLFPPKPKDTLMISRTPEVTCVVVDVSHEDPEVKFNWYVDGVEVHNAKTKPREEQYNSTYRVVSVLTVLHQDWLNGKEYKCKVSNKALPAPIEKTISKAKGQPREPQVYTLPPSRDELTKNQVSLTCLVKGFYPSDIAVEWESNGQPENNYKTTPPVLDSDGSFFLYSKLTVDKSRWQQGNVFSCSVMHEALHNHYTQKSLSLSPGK

[9] = target: T1, human guanylyl cyclase C (GCC); assay: FACS with GCC-expressing cells (cell line not given); antibody concentration for half maximal binding
[10] = target: T2, TOK107-hIg (hGCC-ECD/hIgG1 Fc); assay: SPR, BIACORE T100, 22 C; Prep A 5F9 immobilized on CM4 chip, GCC-ECD-Fc injected; 1:1 model; replicate A
[11] = target: T2, TOK107-hIg (hGCC-ECD/hIgG1 Fc); assay: SPR, BIACORE T100, 22 C; Prep A 5F9 immobilized on CM4 chip, GCC-ECD-Fc injected; 1:1 model; replicate B
[12] = target: T2, TOK107-hIg (hGCC-ECD/hIgG1 Fc); assay: SPR, BIACORE T100, 22 C; Prep A 5F9 immobilized on CM4 chip, GCC-ECD-Fc injected; 1:1 model; replicate C
[13] = target: T2, TOK107-hIg (hGCC-ECD/hIgG1 Fc); assay: SPR, BIACORE T100, 22 C; Prep A 5F9 immobilized on CM4 chip, GCC-ECD-Fc injected; 1:1 model; replicate D
[14] = target: T2, TOK107-hIg (hGCC-ECD/hIgG1 Fc); assay: SPR, BIACORE T100, 22 C; Prep A 5F9 immobilized on CM4 chip, GCC-ECD-Fc injected; 1:1 model; replicate E
[15] = target: T2, TOK107-hIg (hGCC-ECD/hIgG1 Fc); assay: SPR, BIACORE T100, 22 C; Prep B (reference) 5F9 immobilized on CM4 chip, GCC-ECD-Fc injected; 1:1 model; replicate F
[16] = target: T2, TOK107-hIg (hGCC-ECD/hIgG1 Fc); assay: SPR, BIACORE T100, 22 C; Prep B (reference) 5F9 immobilized on CM4 chip, GCC-ECD-Fc injected; 1:1 model; replicate G
[17] = target: T2, TOK107-hIg (hGCC-ECD/hIgG1 Fc); assay: SPR, BIACORE T100, 22 C; Prep B (reference) 5F9 immobilized on CM4 chip, GCC-ECD-Fc injected; 1:1 model; replicate H
[18] = target: T2, TOK107-hIg (hGCC-ECD/hIgG1 Fc); assay: SPR, BIACORE T100, 22 C; Prep B (reference) 5F9 immobilized on CM4 chip, GCC-ECD-Fc injected; 1:1 model; replicate I
[19] = target: T2, TOK107-hIg (hGCC-ECD/hIgG1 Fc); assay: SPR, BIACORE T100, 22 C; Prep A 5F9 immobilized, GCC-ECD-Fc injected; average of replicates A-E (95% confidence interval in brackets)
[20] = target: T2, TOK107-hIg (hGCC-ECD/hIgG1 Fc); assay: SPR, BIACORE T100, 22 C; Prep B (reference) 5F9 immobilized, GCC-ECD-Fc injected; average of replicates F-I (95% confidence interval in brackets)

T1 sequence (P25092 24-1073 limits assumed): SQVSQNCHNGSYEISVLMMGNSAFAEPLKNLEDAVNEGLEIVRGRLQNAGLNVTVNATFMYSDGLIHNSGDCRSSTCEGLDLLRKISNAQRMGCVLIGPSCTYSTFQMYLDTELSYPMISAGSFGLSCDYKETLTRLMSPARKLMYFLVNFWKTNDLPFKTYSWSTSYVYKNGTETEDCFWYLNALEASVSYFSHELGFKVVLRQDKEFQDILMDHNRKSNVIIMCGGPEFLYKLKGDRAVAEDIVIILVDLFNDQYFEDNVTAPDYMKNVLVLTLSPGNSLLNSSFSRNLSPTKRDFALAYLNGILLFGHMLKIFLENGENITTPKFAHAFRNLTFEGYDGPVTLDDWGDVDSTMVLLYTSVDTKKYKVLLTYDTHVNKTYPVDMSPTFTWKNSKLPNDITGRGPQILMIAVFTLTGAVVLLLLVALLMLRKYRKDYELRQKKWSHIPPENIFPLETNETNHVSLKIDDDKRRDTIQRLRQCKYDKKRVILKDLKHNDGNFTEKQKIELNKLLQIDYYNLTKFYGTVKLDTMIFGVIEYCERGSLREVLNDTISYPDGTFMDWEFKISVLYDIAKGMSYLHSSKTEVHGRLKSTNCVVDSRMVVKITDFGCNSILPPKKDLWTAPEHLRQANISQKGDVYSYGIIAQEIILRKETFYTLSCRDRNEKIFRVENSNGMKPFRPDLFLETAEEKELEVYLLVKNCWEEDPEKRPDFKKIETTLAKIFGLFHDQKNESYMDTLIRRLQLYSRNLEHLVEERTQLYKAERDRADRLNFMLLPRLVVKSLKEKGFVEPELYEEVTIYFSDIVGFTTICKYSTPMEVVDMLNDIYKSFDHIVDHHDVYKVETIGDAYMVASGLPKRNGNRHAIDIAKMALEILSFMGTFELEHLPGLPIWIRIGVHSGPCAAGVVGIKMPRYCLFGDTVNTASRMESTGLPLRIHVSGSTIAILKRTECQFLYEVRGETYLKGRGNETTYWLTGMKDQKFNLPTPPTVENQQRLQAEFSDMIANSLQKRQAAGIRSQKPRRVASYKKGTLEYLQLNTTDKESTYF

B1: 5F9 vcMMAE immunoconjugate (antibody, V domains shown)
VH: QVQLQQWGAGLLKPSETLSLTCAVFGGSFSGYYWSWIRQPPGKGLEWIGEINHRGNTNDNPSLKSRVTISVDTSKNQFALKLSSVTAADTAVYYCARERGYTYGNFDHWGQGTLVTVSS
VL: EIVMTQSPATLSVSPGERATLSCRASQSVSRNLAWYQQKPGQAPRLLIYGASTRATGIPARFSGSGSGTEFTLTIGSLQSEDFAVYYCQQYKTWPRTFGQGTNVEIK
modifications: mc-vc-MMAE linked to cysteines freed by partial reduction of interchain disulfides (outside this variable domain); average drug loading about 4 (3.6 in the described preparation)
notes: also called MLN0264; ML0264
LD 50 (nM), direct cytotoxicity, CT 26 GCC #2.5 cells [1]: > 500 nM
LD 50 (nM), direct cytotoxicity, CT 26 GCC #32 cells [1]: 267 nM
LD 50 (nM), direct cytotoxicity, HT 29 GCC #2 cells [1]: 24.1 nM
LD 50 (nM), direct cytotoxicity, HT 29 GCC #5 cells [1]: 654 nM
LD 50 (nM), direct cytotoxicity, HT 29 GCC #18 cells [1]: 555 nM
LD 50 (nM), direct cytotoxicity, HT29 GCC#5 cells [1]: 0.59 nM
MFI [2]: 7420
MFI [3]: 7300
MFI [4]: 445
MFI [5]: 696
MFI [6]: 1790
MFI [7]: 4850

B2: 5F9-vc-MMAF (antibody, V domains shown)
VH: QVQLQQWGAGLLKPSETLSLTCAVFGGSFSGYYWSWIRQPPGKGLEWIGEINHRGNTNDNPSLKSRVTISVDTSKNQFALKLSSVTAADTAVYYCARERGYTYGNFDHWGQGTLVTVSS
VL: EIVMTQSPATLSVSPGERATLSCRASQSVSRNLAWYQQKPGQAPRLLIYGASTRATGIPARFSGSGSGTEFTLTIGSLQSEDFAVYYCQQYKTWPRTFGQGTNVEIK
modifications: mc-vc-MMAF linked to cysteines freed by partial reduction of interchain disulfides (outside this variable domain); average drug loading about four
LD 50 (nM), direct cytotoxicity, CT 26 GCC #2.5 cells [1]: > 10 nM
LD 50 (nM), direct cytotoxicity, CT 26 GCC #32 cells [1]: 0.004 nM
LD 50 (nM), direct cytotoxicity, HT 29 GCC #2 cells [1]: 0.127 nM
LD 50 (nM), direct cytotoxicity, HT 29 GCC #5 cells [1]: 563 nM
LD 50 (nM), direct cytotoxicity, HT 29 GCC #18 cells [1]: > 10000 nM
MFI [2]: 7780
MFI [3]: 7560
MFI [4]: 440
MFI [5]: 707
MFI [6]: 1500
MFI [7]: 4830

B3: 5F9-mc-MMAF (antibody, V domains shown)
VH: QVQLQQWGAGLLKPSETLSLTCAVFGGSFSGYYWSWIRQPPGKGLEWIGEINHRGNTNDNPSLKSRVTISVDTSKNQFALKLSSVTAADTAVYYCARERGYTYGNFDHWGQGTLVTVSS
VL: EIVMTQSPATLSVSPGERATLSCRASQSVSRNLAWYQQKPGQAPRLLIYGASTRATGIPARFSGSGSGTEFTLTIGSLQSEDFAVYYCQQYKTWPRTFGQGTNVEIK
modifications: mc-MMAF (non-cleavable linker) linked to cysteines freed by partial reduction of interchain disulfides (outside this variable domain); average drug loading about four
LD 50 (nM), direct cytotoxicity, CT 26 GCC #2.5 cells [1]: > 10 nM
LD 50 (nM), direct cytotoxicity, CT 26 GCC #32 cells [1]: 0.064 nM
LD 50 (nM), direct cytotoxicity, HT 29 GCC #2 cells [1]: 3.1 nM
LD 50 (nM), direct cytotoxicity, HT 29 GCC #5 cells [1]: > 10000 nM
LD 50 (nM), direct cytotoxicity, HT 29 GCC #18 cells [1]: > 10000 nM
LD 50 (nM), direct cytotoxicity, HT29 GCC#5 cells [1]: > 10 nM
MFI [2]: 7580
MFI [3]: 7400
MFI [4]: 483
MFI [5]: 776
MFI [6]: 2110
MFI [7]: 5350

B4: anti-GCC human monoclonal antibody 5F9 (antibody, V domains shown)
VH: QVQLQQWGAGLLKPSETLSLTCAVFGGSFSGYYWSWIRQPPGKGLEWIGEINHRGNTNDNPSLKSRVTISVDTSKNQFALKLSSVTAADTAVYYCARERGYTYGNFDHWGQGTLVTVSS
VL: EIVMTQSPATLSVSPGERATLSCRASQSVSRNLAWYQQKPGQAPRLLIYGASTRATGIPARFSGSGSGTEFTLTIGSLQSEDFAVYYCQQYKTWPRTFGQGTNVEIK
notes: also called mAb 5F9; MAb 5F9 (Prep A)
MFI [2]: 8030
MFI [3]: 7820
MFI [4]: 500
MFI [5]: 937
MFI [6]: 2460
MFI [7]: 6620
EC50 [8]: 36.5 nM
EC50 [9]: 1.24 nM
Kd [10]: 0.112 nM
koff [10]: 1.19e-05 s⁻¹
kon [10]: 106000 M⁻¹ s⁻¹
Kd [11]: 0.0917 nM
koff [11]: 1.1e-05 s⁻¹
kon [11]: 120000 M⁻¹ s⁻¹
Kd [12]: 0.201 nM
koff [12]: 2.15e-05 s⁻¹
kon [12]: 107000 M⁻¹ s⁻¹
Kd [13]: 0.091 nM
koff [13]: 1.11e-05 s⁻¹
kon [13]: 122000 M⁻¹ s⁻¹
Kd [14]: 0.184 nM
koff [14]: 1.77e-05 s⁻¹
kon [14]: 96400 M⁻¹ s⁻¹
Kd [15]: 0.0789 nM
koff [15]: 7.64e-06 s⁻¹
kon [15]: 96800 M⁻¹ s⁻¹
Kd [16]: 0.103 nM
koff [16]: 1.24e-05 s⁻¹
kon [16]: 120000 M⁻¹ s⁻¹
Kd [17]: 0.105 nM
koff [17]: 9.57e-06 s⁻¹
kon [17]: 90900 M⁻¹ s⁻¹
Kd [18]: 0.127 nM
koff [18]: 1.54e-05 s⁻¹
kon [18]: 121000 M⁻¹ s⁻¹
Kd [19]: 0.136 nM
koff [19]: 1.46e-05 s⁻¹
kon [19]: 110000 M⁻¹ s⁻¹
Kd [20]: 0.103 nM
koff [20]: 1.13e-05 s⁻¹
kon [20]: 107000 M⁻¹ s⁻¹
